Experimental findings from US20050069542A1 (Human Genome Sciences, published 2005) are described below.

Numbering of substitutions follows the chain as printed.

The target of the test is T1, flag-tagged soluble TL3 (amino acids 105-251 of SEQ ID NO:234) (Homo sapiens (Human), UniProt O75888 105-250).
T1 construct: Heterologous flag-tagged control protein, immobilized in the ELISA; also called flagged tagged TL-3; not shown: Flag tag
T1 sequence: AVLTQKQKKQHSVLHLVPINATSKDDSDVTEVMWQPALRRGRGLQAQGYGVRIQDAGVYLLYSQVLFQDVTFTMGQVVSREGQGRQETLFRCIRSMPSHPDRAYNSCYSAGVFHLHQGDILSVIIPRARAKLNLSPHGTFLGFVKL
Put plainly: phage ELISA on immobilized flag-tagged soluble TL3. Here is the method:
The individual phage isolates in the panel of phage, each phage expressing a unique scFv that bound to flag-tagged GMAD, were tested to ensure specificity for GMAD using an ELISA assay. The scFvs were tested in an ELISA for their ability to bind a heterologous flag-tagged protein, in this case—immobilized soluble TL3 (amino acids 105-251 of SEQ ID NO:234, GenBank Accesion Number NP_{—}003799, also described in International Patent Application Publication Number WO97/33902 and WO2001/96528 which are herein incorporated by reference in their entireties).
A general note: In an ELISA, binding on a coated surface is turned into a signal by an enzyme label.

B1: GMBC639 (scFv)
scFv: GVQLVQSGAEVKTPGASVKVSCKASGYTFTNHYMHWVRQAPGQGIEWVGVINPSGDGSSYAQTFQGRVTMTRDTSTSTVYMELRSLRSDDTAVYYCARDLFYDFWSDYYRNDQYYYMDVWGKGTLVTVSSGGGGSGGGGSGGGGSSELTQDPAVSVALGQAVRITCQGDSLRSYYASWYQQKPGQAPVLVIYGKNNRPSGIPDRFSGSSSGNTASLTITGAQAEDEADYYCNSRDSSGNHVVFGGGTKLTVLG
As for B1, the binding result was “no binding”.

B2: GMBC652 (scFv)
scFv: GVQLVQSGGVVVKPGGSLRLSCAASGFTFSDAWMNWVRQAPGKGLEWVGRIKSKGSGGTTDYAAPVKGRFTISRDDSENTLYLQMNSLKTEDTAVYYCTWDHSYYYDMAVWGRGTMVTASSGGGGSGGGGSGGGGSQSVLTQPASVSGSPGQSITISCTGTSSDVGGYNYVSWYQQHPGKAPKFMIYDVSKRPSGVSNRFSGSKSGNTASLTISGVQAEDEADYYCSSYTSASTVIFGGGTKLTVLG
As for B2, the binding result was “no binding”.

B3: GMBC673 (scFv)
scFv: EVQLVESGGGLVQTGGSLRLSCAASGFPIGSHWMSWVRQSPGKGLEWVASIKQDGREKHFVDSVKGRFGISRDNAKDSLYLQMNSLRIEDTAVYYCARETYGGYYYYFMDVWGRGTLVTVSSGGGGSGGGGSGGGGSSELTQDPAVSVALGQTVRITCQGDSLRSYYASWYQQKPGQAPVLVIYGKNNRPSGIPDRFSGSSSGNTASLTITGAQAEDEADYYCQTWGPGIRVFGGGTKLTVLG
On to B3, for which the binding result is on record as “no binding”.

B4: GMBC683 (scFv)
scFv: EVQLVESGGGLVQPGRSLRLSCAASGFTFSSYGMHWVRQAPGKGLEWVAVISYDGSNKYYADSVKGRFTISRDNSKNTLYLQMNSLRAEDTAVYYCAKRAAAGTLDYWGQGTTVTVSSGGGGSGGGGSGGGGSSELTQDPAVSVALGQTVRITCQGDSLRSYYASWYQQKPGQAPVLVIYGKNNRPSGIPDRFSGSSSGNTASLTITGAQAEDEADYYCNSRDSSGNHVVFGGGTKLTVLG
With B4, the binding result is listed as “no binding”.

B5: GMBC646 (scFv)
scFv: GVQLVQSGAEVKKPGASVKVSCKASGYTFTSYYIHWVRQAPGQGLEWMGIINPSGGTTSYAQKFQGRVTMTRDTSTSTVYMELSSLRSEDTAMYYCARERFLRGMDVWGRGTMVTVSSGGGGSGGGGSGGGGSDIVMTQSPSTLSASVGDRVTITCRASQGISSWLAWYQQKPGRAPKVLIYKASTLESGVPSRFSGSGSGTDFTLTISSLQPEDFATYYCQQSYSTPWTFGQGTKLEIKR
As to B5, the binding result was “no binding”.

B6: GMBC606 (scFv)
scFv: EVQLVQSGGGVVQPGGSLRLSCAASGFTFSSYGMHWVRQAPGKGLEWVAFIRYDGSNKYYADSVKGRFTISRDNSKNTLYLQMNSLRAEDTAVYYCAKSSSFANAFDIWGQGTTVTVSSGGGGSGGGGSGGGGSSELTQDPAVSVALGQTVRITCQGDSLRSYYASWYQQKPGQAPVLVIYGKNNRPSGIPDRFSGSSSGNTASLTITGAQAEDEADYYCNSRDSSGNHVVFGGGTKLTVLG
Consider B6, for which the binding result is listed as “no binding”.

B7: GMBC725 (scFv)
scFv: B6 scFv with S7T, R52L, F102S, N104S, G110R, G112R
Turning to B7, the binding result was “no binding”.

B8: GMBC609 (scFv)
scFv: QVQLVESGGGLVKPGESLRLSCEASGFEFNYAWMSWVRQAPGKGLEWVGRSRSEASGGTTDYAAPLQDRFTISRDDSKNTLYLQVNSLKIEDTGVYFCKWEKSEYYGMDVWGRGTPVTVSSGGGGSGGGGSGGGGSQSVLTQPPSVSAAPGQKVTISCSGSTSNIGNNYVSWYQQHPGKAPKLMIYDVSKRPSGVPDRFSGSKSGNSASLDISGLQSEDEADYYCAAWDDSLSEFLFGTGTKLTVLG
As for B8, the binding result was “no binding”.

B9: GMBC666 (scFv)
scFv: B8 scFv with Q1E, V12A, R113K, P116M
As for B9, the binding result is on record as “no binding”.

B10: GMBC687 (scFv)
scFv: QVQLVQSGAEVKKPGSSVKVSCKAPGDTFSNYIFNWVRQAPGQGLEWMGGIIPKFGTVNDAHKFQDRVTIAADESTNTASMELSSLTSEDTAVYYCACEPIPKDYGDVNGLEIWGKGTMVTVSSGGGGSGGGGSGGGGSDIQMTQSPSTLSASIGDRVTITCRASEGIYHWLAWYQQKPGKAPKLLIYKASSLASGAPSRFSGSGSGTDFTLTISSLQPDDFATYYCQQYSNYPLTFGGGTKLEIKR
B10: the binding result is listed as “no binding”.

B11: GMBC681 (scFv)
scFv: QVQLVQSGGGVVQPGGSLRLSCAASGFTFSSYGMHWVRQAPGKGLEWVAFIRYDGSNKYYADSVKGRFTISRDNSKNTLYLQMNSLRAEDTAVYYCAKGGTGYFDLWGRGTLVTVSSGGGGSGGGGSGGGGSDIQMTQSPSTLSASIGDRVTITCRASEGIYHWLAWYQQKPGKAPKLLIYKASSLASGAPSRFSGSGSGTDFTLTISSLQPDDFATYYCQQYSNYPLTFGGGTKLEIKR
B11: the binding result was “no binding”.

B12: GMBC641 (scFv)
scFv: EVQLVESGGGVVRPGRSLRLSCAASGFSFSSYGMHWVRQAPGKGLEWVSAISGSGGSTYYADSVKGRFTISRDNSKNTLYLQMNSLRAEDTAVYFCAKGGDRSFRAFDFWGQGTMVTVSSGGGGSGGGGSGGGGSSELTQDPAVSVALGQTVRITCQGDSLRSYYASWYQQKPGQAPVLVIYGKNNRPSGIPDRFSGSSSGNTASLTITGAQAEDEADYYCNSRDSSGNHVVFGGGTKLTVLG
As for B12, the binding result is listed as “no binding”.

B13: GMBC668 (scFv)
scFv: EVQLVESGGGLVKPGGSLRLSCAASGFTFSDAWMNWVRQAPGKGLEWVGRIKSKGSGGTTDYAAPVKGRFTISRDDSENTLYLQMNSLKTEDTAVYYCTWDHSYYYDMAVWGRGTLVTVSSGGGGSGGGGSGGGGSSELTQDPAVSVALGQTVRITCQGDSLRSYYASWYQQKPGQAPVLVIYGKNNRPSGIPDRFSGSSSGNTASLTITGAQAEDEADYYCNSRDSSGNHVVFGGGTKLTVLG
Take B13: the binding result is reported as “no binding”.

B14: GMBC682 (scFv)
scFv: QVQLVESGGGVVKPGGSLRLSCAASGFKFSDAWMNWVRQAPGKGLEWVGRIKSKGSGGTIDYAAPVKDRFTISRDDSKNTLYLQMNSLKTEDTALYYCTWDWDFYYGMNVWGRGTLVTVSSGGGGSGGGGSGGGGSSELTQDPAVSVALGQTVRITCQGDSLRSYYASWYQQKPGQAPVLVIYGKNNRPSGIPDRFSGSSSGNTASLTITGAQAEDEADYYCNSRDSSGNHVVFGGGTKLTVLG
In the case of B14, the binding result is on record as “no binding”.

B15: GMBC608 (scFv)
scFv: EVQLVQSGGGLVQPGRSLRLSCAASGFTFSDSYMTWIRQAPGEGLEFVSYISSGSSTTYYTDSVKGRFTISRDNSKNTLYLQMNSLRPEDTAVYYCARRSISSDYYSYYLDVWGKGTLVTVSSGGGGSGGGGSGGGGSSELTQDPAVSVALGQTVRITCQGDSLRSYYASWYQQKPGQAPVLVIYGKNNRPSGIPDRFSGSSSGNTASLTITGAQAEDEADYYCNSRDSSGNHVVFGGGTKLTVLG
In the case of B15, the binding result is listed as “no binding”.

B16: GMBC655 (scFv)
scFv: EVQLVESGGGLVKPGGSLRLSCAASGFTFSSYGMSWIRQAPGKGQEWVSAISGSGGSAYYADSVKGRFTISRDNSKNTLYLQMNSLRAEDTAVYYCAKAYSSEDYWGRGTMVTVSSGGGGSGGGGSGGGGSNIQMTQSPSFLSASVGDRVTITCRASQGINNYLAWYQQKPGRAPKLLIYAASSLQSGVPSRFSGSGSGTDFTLTISSLQPDDFATYYCQQYSNYPLTFGGGTKLEIKR
As for B16, the binding result is “no binding”.

B17: GMBC669 (scFv)
scFv: QVQLVESGGALVKPGGSLRLSCAASGFTFSDAWMNWVRQAPGKGLEWVGRIKSKGSGGTIDYAAPVKDRFTISRDDSKNTLYLQMNSLKTEDTALYYCTWDWDFYYGMNVWGQGTLVTVSSGGGGSGGGGSGGGGSQSVLTQPPSASGSPGQSVTISCTGTSSDVGGYNYVSWYQQHPGKAPKFMIYDVSKRPSGVSNRFSGSKSGNTASLTISGVQAEDEADYYCSSYTSASTVIFGGGTKLTVLG
On to B17, for which the binding result is reported as “no binding”.

B18: GMBC678 (scFv)
scFv: B17 scFv with Q1E, A10G
Consider B18, for which the binding result is recorded as “no binding”.

B19: GMBC642 (scFv)
scFv: QVQLQQSGAEVKKPGASVKVSCKASGYTFTIHYMHWVRQAPGQGLEWMGIINPGDGSTSYAQNFQGRVTMTRDTSTSTVYMELSSLRSEDTAVYYCARAGRTVTSHFDYWGRGTLATVSSGGGGSGGGGSGGGGSSELTQDPAVSVALGQTVRITCQGDSLRSYYASWYQQKPGQAPVLVIYGKNNRPSGIPDRFSGSSSGNTASLTITGAQAEDEADYYCNSRDSSGNHVVFGGGTKLTVLG
For the molecule B19, the binding result is listed as “no binding”.

B20: GMBC662 (scFv)
scFv: GVQLVQSGAEVKKPGSSVKVSCKASGGTFSSYTISWVRQAPGQGLEWMGRIIPILGIANYAQKFQGRVTITADKSTSTAYMELSSLRSEDTAVYYCAREKLRDFQHWGQGTLVTVSSGGGGSGGGGSGGGGSQSVLTQPASVSGSPGQSITISCTGTSSDVGGYNYVSWYQQHPGKAPKLMIYEGSKRPSGISNRFSGSKSGNTASLTISRLQAEDEADYYCSSYTTRSTRVFGGGTKLTVLG
As to B20, the binding result is “no binding”.
